Results reported in patent US20160168251A1 (MorphoSys, published 2016).

T1: NPRA-Fc fusion protein, without ligand (human)
T1 construct: also called NPRA-ECD-Fc; recombinant NPRA-Fc
T1 chain: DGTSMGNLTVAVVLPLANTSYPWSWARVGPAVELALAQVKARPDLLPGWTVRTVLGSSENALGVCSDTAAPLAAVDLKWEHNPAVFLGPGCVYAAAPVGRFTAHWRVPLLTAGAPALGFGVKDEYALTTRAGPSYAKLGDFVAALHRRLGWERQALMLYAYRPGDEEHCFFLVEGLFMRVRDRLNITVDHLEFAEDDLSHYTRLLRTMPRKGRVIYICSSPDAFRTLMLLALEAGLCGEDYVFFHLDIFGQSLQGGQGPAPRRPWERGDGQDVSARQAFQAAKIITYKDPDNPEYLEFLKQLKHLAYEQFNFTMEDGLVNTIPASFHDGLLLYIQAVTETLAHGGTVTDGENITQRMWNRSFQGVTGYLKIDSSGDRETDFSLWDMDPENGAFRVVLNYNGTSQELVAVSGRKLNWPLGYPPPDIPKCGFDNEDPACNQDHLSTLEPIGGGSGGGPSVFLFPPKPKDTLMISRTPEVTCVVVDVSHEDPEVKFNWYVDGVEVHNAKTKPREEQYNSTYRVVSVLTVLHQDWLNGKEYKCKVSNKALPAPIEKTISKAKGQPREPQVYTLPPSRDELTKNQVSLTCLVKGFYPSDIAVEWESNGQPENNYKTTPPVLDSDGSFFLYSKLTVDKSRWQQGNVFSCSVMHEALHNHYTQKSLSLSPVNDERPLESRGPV

T2: biotinylated ANP (UniProt P01160 124-151, biotin label (position not given))
T2 construct: mature; Text: conjugated to Streptavidin beads; also called biotin-labeled ANP
T2 peptide (looked up): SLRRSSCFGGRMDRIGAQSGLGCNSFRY

T3: human NPRA on HEK293 cells, without added ligand (human, UniProt P16066 33-1061)
T3 construct: a signal peptide is not delimited; also called HEK NPRA cells; HEK hNPRA cells
T3 sequence: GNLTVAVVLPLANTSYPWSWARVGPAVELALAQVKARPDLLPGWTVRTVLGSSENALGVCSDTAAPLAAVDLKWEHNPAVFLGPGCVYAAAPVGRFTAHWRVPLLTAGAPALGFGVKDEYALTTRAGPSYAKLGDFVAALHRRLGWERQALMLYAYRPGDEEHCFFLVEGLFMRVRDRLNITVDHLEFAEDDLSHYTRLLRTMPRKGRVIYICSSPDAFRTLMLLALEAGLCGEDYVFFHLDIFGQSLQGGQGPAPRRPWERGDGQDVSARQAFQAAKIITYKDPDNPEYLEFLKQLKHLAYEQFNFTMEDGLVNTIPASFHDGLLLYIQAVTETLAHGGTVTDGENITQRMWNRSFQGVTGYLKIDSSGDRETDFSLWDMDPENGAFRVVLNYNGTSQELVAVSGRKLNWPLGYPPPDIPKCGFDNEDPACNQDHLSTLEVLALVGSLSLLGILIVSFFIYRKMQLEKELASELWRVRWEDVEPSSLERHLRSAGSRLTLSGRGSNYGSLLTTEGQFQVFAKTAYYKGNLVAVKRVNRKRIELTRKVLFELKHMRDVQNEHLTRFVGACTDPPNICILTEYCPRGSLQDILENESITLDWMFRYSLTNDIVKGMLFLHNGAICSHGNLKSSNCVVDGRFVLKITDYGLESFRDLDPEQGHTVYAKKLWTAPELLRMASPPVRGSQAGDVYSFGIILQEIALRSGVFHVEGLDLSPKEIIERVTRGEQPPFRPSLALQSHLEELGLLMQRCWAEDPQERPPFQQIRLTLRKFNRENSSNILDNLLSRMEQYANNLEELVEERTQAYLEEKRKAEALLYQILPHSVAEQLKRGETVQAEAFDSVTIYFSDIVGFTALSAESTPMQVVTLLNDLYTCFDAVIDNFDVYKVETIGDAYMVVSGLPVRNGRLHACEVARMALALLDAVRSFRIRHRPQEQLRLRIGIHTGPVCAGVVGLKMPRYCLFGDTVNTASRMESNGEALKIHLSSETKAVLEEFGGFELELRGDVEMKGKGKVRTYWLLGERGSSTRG

T4: human NPRC on HEK293 cells in the presence of BNP (human, UniProt P17342 27-541; P16860 103-134)
T4 construct: whole, on cells;mature; also called HEK NPRC cells + 100 nM BNP
T4 sequence (looked up): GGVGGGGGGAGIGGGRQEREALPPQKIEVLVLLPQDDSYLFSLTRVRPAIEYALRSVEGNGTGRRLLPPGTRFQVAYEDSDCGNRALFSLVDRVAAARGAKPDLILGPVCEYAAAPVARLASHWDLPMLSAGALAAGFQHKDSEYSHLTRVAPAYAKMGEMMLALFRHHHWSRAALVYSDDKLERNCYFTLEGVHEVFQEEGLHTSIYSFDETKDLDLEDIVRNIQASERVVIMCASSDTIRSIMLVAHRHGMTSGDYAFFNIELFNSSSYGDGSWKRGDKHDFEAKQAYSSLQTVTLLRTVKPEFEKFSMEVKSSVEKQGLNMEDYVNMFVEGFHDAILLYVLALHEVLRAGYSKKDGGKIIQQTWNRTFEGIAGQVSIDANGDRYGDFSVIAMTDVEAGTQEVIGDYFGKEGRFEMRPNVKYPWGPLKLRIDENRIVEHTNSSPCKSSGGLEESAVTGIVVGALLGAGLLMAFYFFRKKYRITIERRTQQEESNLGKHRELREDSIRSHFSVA
T4 sequence (peptide, looked up): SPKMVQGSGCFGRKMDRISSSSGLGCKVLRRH

T5: human NPRC on HEK293 cells in the presence of ANP (human, UniProt P17342 27-541; P01160 124-151)
T5 construct: whole, on cells;mature; also called HEK NPRC cells + 100 nM ANP
T5 sequence (looked up): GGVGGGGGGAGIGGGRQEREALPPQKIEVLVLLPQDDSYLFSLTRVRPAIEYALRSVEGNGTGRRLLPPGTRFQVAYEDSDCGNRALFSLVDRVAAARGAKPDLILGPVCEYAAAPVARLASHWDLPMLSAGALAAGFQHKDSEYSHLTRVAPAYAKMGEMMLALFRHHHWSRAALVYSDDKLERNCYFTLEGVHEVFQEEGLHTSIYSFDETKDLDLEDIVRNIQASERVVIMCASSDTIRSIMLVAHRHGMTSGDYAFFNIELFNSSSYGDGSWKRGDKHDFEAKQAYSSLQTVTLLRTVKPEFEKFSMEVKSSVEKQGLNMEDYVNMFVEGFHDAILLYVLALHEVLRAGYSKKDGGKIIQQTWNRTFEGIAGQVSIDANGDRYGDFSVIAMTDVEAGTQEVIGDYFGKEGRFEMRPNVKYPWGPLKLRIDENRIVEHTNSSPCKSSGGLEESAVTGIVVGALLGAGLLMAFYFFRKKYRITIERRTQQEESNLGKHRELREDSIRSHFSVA
T5 sequence (peptide, looked up): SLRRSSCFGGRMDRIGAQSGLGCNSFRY

T6: human NPRC on HEK293 cells, without added ligand (human, UniProt P17342 27-541)
T6 construct: whole, on cells; also called HEK NPRC cells; natriuretic peptide receptor C
T6 sequence (looked up): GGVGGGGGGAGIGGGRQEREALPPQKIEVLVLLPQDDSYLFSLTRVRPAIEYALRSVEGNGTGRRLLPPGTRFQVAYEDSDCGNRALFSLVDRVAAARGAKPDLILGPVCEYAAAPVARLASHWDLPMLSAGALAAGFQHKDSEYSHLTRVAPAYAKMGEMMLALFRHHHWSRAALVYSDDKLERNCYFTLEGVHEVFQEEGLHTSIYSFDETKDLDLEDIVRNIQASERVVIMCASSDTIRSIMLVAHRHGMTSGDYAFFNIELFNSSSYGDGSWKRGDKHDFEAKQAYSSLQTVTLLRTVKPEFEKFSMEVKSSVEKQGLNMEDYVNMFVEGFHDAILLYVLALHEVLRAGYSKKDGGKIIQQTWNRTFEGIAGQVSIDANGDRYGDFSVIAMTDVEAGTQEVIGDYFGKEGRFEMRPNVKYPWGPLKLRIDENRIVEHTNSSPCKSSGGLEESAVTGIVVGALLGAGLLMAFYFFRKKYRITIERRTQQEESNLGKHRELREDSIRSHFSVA

T7: human NPRA on HEK293 cells bound to ANP (human, UniProt P01160 124-151)
T7 construct: mature; Receptor-ligand complex on cells; also called HEK NPRA cells loaded with ANP; ANP-NPRA complex
T7 sequence: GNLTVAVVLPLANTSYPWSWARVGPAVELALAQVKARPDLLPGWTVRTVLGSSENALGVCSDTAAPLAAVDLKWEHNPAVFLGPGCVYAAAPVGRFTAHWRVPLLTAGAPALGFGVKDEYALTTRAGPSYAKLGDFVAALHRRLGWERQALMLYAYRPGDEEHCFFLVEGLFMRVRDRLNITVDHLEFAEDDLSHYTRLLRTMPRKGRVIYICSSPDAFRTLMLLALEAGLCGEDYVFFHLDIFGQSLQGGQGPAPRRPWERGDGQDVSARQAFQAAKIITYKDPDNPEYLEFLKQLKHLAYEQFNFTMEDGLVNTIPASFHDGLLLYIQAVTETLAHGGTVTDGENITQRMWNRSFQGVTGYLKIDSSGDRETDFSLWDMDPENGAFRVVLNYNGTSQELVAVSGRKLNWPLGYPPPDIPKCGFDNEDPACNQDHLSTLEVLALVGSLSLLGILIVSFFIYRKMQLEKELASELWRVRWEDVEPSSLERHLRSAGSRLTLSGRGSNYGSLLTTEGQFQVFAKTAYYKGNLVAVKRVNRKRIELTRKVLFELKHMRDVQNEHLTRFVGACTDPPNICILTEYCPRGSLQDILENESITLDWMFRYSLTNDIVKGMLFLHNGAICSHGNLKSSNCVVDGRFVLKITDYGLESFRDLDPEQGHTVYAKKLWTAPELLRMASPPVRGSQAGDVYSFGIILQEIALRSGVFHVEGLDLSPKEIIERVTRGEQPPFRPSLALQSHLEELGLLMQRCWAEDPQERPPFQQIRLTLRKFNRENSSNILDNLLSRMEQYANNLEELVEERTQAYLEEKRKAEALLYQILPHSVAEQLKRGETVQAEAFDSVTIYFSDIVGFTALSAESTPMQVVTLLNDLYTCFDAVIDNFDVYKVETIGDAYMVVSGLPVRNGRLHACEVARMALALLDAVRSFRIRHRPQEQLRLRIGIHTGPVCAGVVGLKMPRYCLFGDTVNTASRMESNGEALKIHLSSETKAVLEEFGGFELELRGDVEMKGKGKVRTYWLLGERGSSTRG
T7 sequence (peptide): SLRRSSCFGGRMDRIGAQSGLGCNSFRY


Assays:
[1] = molecular target: T1, NPRA-Fc fusion protein, without ligand; assay: ELISA on captured NPRA-Fc without ligand
biotinylated ANP = molecular target: T2, biotinylated ANP; assay: binding to biotinylated ANP on streptavidin, ECL readout (legend: ELISA)
[2] = molecular target: T3, human NPRA on HEK293 cells, without …; assay: FACS, HEK NPRA cells without ligand
[3] = molecular target: T4, human NPRC on HEK293 cells in the …; assay: FACS, HEK NPRC cells with 100 nM BNP
Description: (§1) HEK NPRA cells are detached with Accutase (PAA Laboratories GmbH, Cat. No. L11-007, Austria), harvested by centrifugation (900 rpm, 4 minutes) and resuspended in FACS buffer (PBS/3% FCS/0.02% NaN3) to a final concentration of 10⁶ cells/ml. 100 μl of the cell suspension is transferred to each well of a 96 round bottom plate (TC Microwell 96U, Nunc). […] Cells are washed in 150 μl of FACS buffer, pelleted and resuspended in 50 μl of the solution containing the primary antibody comprising a BEL extract of Fabs, a diluted BEL extract or purified antibody diluted in FACS buffer and incubated on ice for 30 min. Cells are washed again in FACS buffer and resuspended in 50 μl of FACS buffer containing the secondary antibody (R-Phycoerythrin-conjugated Affipure F(ab′)₂ Fragment Goat Anti-Human IgG, Dianova) and incubated on ice for 45 min. Cells are washed twice with FACS buffer and resuspended in 200 μl of FACS buffer for analysis in the FACS Array (BD Biosciences).

[4] = molecular target: T5, human NPRC on HEK293 cells in the …; assay: FACS, HEK NPRC cells with 100 nM ANP
Description: as §1

[5] = molecular target: T6, human NPRC on HEK293 cells, without …; assay: FACS, HEK NPRC cells without ligand
Description: as §1

[6] = molecular target: T7, human NPRA on HEK293 cells bound to ANP; assay: FACS, HEK NPRA cells loaded with 100 nM ANP
[7] = molecular target: T7, human NPRA on HEK293 cells bound to ANP; assay: cell-based or functional assay
[8] = molecular target: T7, human NPRA on HEK293 cells bound to ANP; assay: FACS, IgG4_Pro on HEK NPRA cells in the presence of 100 nM ANP
Description: as §1

Binder	binding result [1]	binding result (biotinylated ANP)	binding result [2]	binding result [3]	binding result [4]	binding result [5]	EC50 [6] [nM]	cGMP EC50 (nM), titration of the antibody on HEK NPRA cells with 200 pM ANP [7] [nM]	EC50 [8] [nM]
5064 Fab-dHLX (other) VH: QVQLQQSGPGLVKPSQTLSLTCAISGDSVSSRSASWSWIRQSPGRGLEWLGRIYYRSKWYNDYAVSVKSRITINPDTSKNQFSLQLNSVTPEDTAVYYCARMDVPSFRYFDVWGQGTLVTVSS VL: not shown	no binding (tested: 20 µg/ml)	no binding (tested: 10 nM)	no binding (tested: 20 µg/ml)						
5064 IgG4_Pro (antibody, V domains shown) VH: QVQLQQSGPGLVKPSQTLSLTCAISGDSVSSRSASWSWIRQSPGRGLEWLGRIYYRSKWYNDYAVSVKSRITINPDTSKNQFSLQLNSVTPEDTAVYYCARMDVPSFRYFDVWGQGTLVTVSS VL: not shown				no binding (tested: 20 nM)	no binding (tested: 20 nM)	no binding (tested: 20 nM)	1.6	12.1	1.08
